From patent US20120058906A1 (published 2012)
Positions count from the first letter of the chain named. Blank lines part the entries; values can stand above or below the binder they belong to.

Key:
[1] = molecular target: T1, Recombinant Human DLL4 (R&D Systems Cat#1506-D4/CF) (human, UniProt Q9NR61 27-524); test: ECL (MSD Multi-Spot) binding, antigen spotted on plate; Fab 500 nM
T1 construct: Bought recombinant protein; also called delta-like protein 4

[2] = molecular target: T2, rHuman Notch-1/Fc Chimera, CF (R&D Systems Cat#3647-TK) (human, UniProt P46531 19-526); test: as above
T2 construct: Bought Fc chimera; Fc part of the bought chimera not given

[3] = molecular target: T3, rHuman P-Cadherin/Fc Chimera, CF (R&D Systems Cat#861-PC) (human, UniProt P22223 108-654); test: as above
T3 construct: Bought Fc chimera; Fc part of the bought chimera not given

[4] = molecular target: T4, rHuman Erythropoietin R/Fc Chimera, CF (R&D Systems Cat#963-ER) (human, UniProt P19235 25-250); test: as above
T4 construct: Bought Fc chimera; also called EPO R/Fc; erythropoietin receptor; Fc part of the bought chimera not given
T4 sequence: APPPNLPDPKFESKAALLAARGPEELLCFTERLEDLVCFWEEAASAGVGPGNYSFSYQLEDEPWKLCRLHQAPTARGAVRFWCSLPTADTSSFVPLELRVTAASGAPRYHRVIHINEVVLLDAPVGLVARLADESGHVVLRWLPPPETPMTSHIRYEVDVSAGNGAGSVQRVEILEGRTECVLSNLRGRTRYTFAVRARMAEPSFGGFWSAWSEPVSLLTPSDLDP

[5] = molecular target: T5, rHuman P-Cadherin/Fc Chimera, CF (R&D Systems Cat#861-PC) (human, UniProt P22223 108-654); test: ECL (MSD multi-spot), antigen on plate, Fab 50 nM
T5 construct: Bought Fc chimera; also called CDH3; not shown: Fc of the bought chimera

[6] = molecular target: T6, Recombinant Human DLL4 (R&D Systems Cat#1506-D4/CF) (human, UniProt Q9NR61 27-524); test: ECL (MSD multi-spot), antigen on plate, Fab 50 nM
T6 construct: Bought recombinant protein; also called delta-like protein 4

[7] = molecular target: T7, rHuman Notch-1/Fc Chimera, CF (R&D Systems Cat#3647-TK) (human, UniProt P46531 19-526); test: ECL (MSD multi-spot), antigen on plate, Fab 50 nM
T7 construct: Bought Fc chimera; not shown: Fc of the bought chimera

[8] = molecular target: T8, rHuman HGF R/c-MET/Fc Chimera, CF (R&D Systems Cat#358-MT/CF) (human, UniProt P08581 25-932); test: ECL (MSD multi-spot), antigen on plate, Fab 50 nM
T8 construct: Bought Fc chimera; also called HGF R/Fc; not shown: Fc of the bought chimera

[9] = molecular target: T9, rHuman ErbB2/Fc Chimera, CF (R&D Systems Cat#1129-ER) (human, UniProt P04626 23-652); test: ECL (MSD multi-spot), antigen on plate, Fab 50 nM
T9 construct: Bought Fc chimera; also called HER2/neu; not shown: Fc of the bought chimera

[10] = molecular target: T10, rHuman Erythropoietin R/Fc Chimera, CF (R&D Systems Cat#963-ER) (human, UniProt P19235 25-250); test: ECL (MSD multi-spot), antigen on plate, Fab 50 nM
T10 construct: Bought Fc chimera; also called EPO R/Fc; Epo R; not shown: Fc of the bought chimera
T10 sequence: T4 sequence

[11] = molecular target: T11, rHuman CD44/Fc Chimera, CF (R&D Systems Cat#3660-CD) (human, UniProt P16070 21-220); test: ECL (MSD multi-spot), antigen on plate, Fab 50 nM
T11 construct: Bought Fc chimera; not shown: Fc of the bought chimera

[12] = molecular target: T12, rHuman EGF R/Fc Chimera, CF (R&D Systems Cat#344-ER) (human, UniProt P00533 25-645); test: ECL (MSD multi-spot), antigen on plate, Fab 50 nM
T12 construct: Bought Fc chimera; also called ErbB-1; not shown: Fc of the bought chimera

[13] = molecular target: T13, rHuman IGF-1 sR (insulin-like growth factor-1 soluble receptor), CF (R&D Systems Cat#391-GR) (human, UniProt P08069 31-932); test: ECL (MSD multi-spot), antigen on plate, Fab 50 nM
T13 construct: Bought soluble receptor; also called IGF-R1

[14] = molecular target: T14, rHuman P-Cadherin/Fc Chimera, CF (R&D Systems Cat#861-PC) (human, UniProt P22223 108-654); test: ECL (MSD Multi-Spot) binding assay, antigen spotted on plate; Fab 60 nM; blank spot 237
T14 construct: Bought Fc chimera; also called CDH3; Fc part of the bought chimera not given

[15] = molecular target: T15, rHuman Erythropoietin R/Fc Chimera, CF (R&D Systems Cat#963-ER) (human, UniProt P19235 25-250); test: as above
T15 construct: Bought Fc chimera; also called EPO R/Fc; Epo R; Fc part of the bought chimera not given
T15 sequence: T4 sequence

[16] = molecular target: T16, rHuman Notch-1/Fc Chimera, CF (R&D Systems Cat#3647-TK) (human, UniProt P46531 19-526); test: as above
T16 construct: Bought Fc chimera; Fc part of the bought chimera not given

[17] = molecular target: T17, rHuman CD44/Fc Chimera, CF (R&D Systems Cat#3660-CD) (human, UniProt P16070 21-220); test: as above
T17 construct: Bought Fc chimera; Fc part of the bought chimera not given

[18] = molecular target: T18, Recombinant Human DLL4 (R&D Systems Cat#1506-D4/CF) (human, UniProt Q9NR61 27-524); test: as above
T18 construct: Bought recombinant protein; also called delta-like protein 4; rHuman DLL4

[19] = molecular target: T19, rHuman EGF R/Fc Chimera, CF (R&D Systems Cat#344-ER) (human, UniProt P00533 25-645); test: ECL (MSD Multi-Spot) binding assay, antigen spotted on plate; Fab 6 nM; blank spot 191
T19 construct: Bought Fc chimera; also called epidermal growth factor receptor; Fc part of the bought chimera not given
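Note: blank spot per well as comparator with Hit at signal to blank ratio of 4 or more.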

- ECL signal [1]: 93100
- ECL signal [2]: 644
- ECL signal [3]: 939
- ECL signal [4]: 1210
B1: Fab VH1-46_IGHD6-6*01_IGHJ1*01_S102A_S103P_S104F_H111Y & L6_IGKJ1*01 (Fab, V domains shown)
VH: QVQLVQSGAEVKKPGASVKVSCKASGYTFTSYYMHWVRQAPGQGLEWMGIINPSGGSTSYAQKFQGRVTMTRDTSTSTVYMELSSLRSEDTAVYYCAREEYAPFSAEYFQYWGQGTLVTVSS
VL: not shown
notes: Fab made in E. coli; The heavy chain also carries the CH1 with Flag and His tags of Plasmid A, and the light chain the kappa constant region of Plasmid C

- ECL signal [5]: 143 ECL signal
- ECL signal [6]: 37200 ECL signal
- ECL signal [7]: 279 ECL signal
- ECL signal [8]: 135 ECL signal
- ECL signal [9]: 395 ECL signal
- ECL signal [10]: 500 ECL signal
- ECL signal [11]: 271 ECL signal
- ECL signal [12]: 294 ECL signal
- ECL signal [13]: 240 ECL signal
B2: Fab VH1-46_IGHD6-6*01_IGHJ1*01_S102A_S103P_S104F & L6_IGKJ1*01_S30N (Fab, V domains shown)
VH: B1 VH with Y111H
VL: EIVLTQSPATLSLSPGERATLSCRASQSVNSYLAWYQQKPGQAPRLLIYDASNRATGIPARFSGSGSGTDFTLTISSLEPEDFAVYYCQQRSNWPPWTFGQGTKVEIKR
notes: Fab

- ECL signal [14]: 372
- ECL signal [15]: 423
- ECL signal [16]: 415
- ECL signal [17]: 434
- ECL signal [18]: 875
B3: Fab VH6-1_IGHD3-3*01_IGHJ4*01 & V4-3_IGLJ4*01 (Fab, V domains shown)
VH: QVQLQQSGPGLVKPSQTLSLTCAISGDSVSSNSAAWNWIRQSPSRGLEWLGRTYYRSKWYNDYAVSVKSRITINPDTSKNQFSLQLNSVTPEDTAVYYCAREYYDFWSGYYTDYFDYWGQGTLVTVSS
VL: QPVLTQPTSLSASPGASARLTCTLRSGINLGSYRIFWYQQKPESPPRYLLSYYSDSSKHQGSGVPSRFSGSKDASSNAGILVISGLQSEDEADYYCMIWHSSASFVFGGGTQLIIL
notes: Tested as a Fab made in E. coli; also called IGHV6-1*01

- ECL signal [19]: 742
B4: Fab VH5-51_IGHD5-18*01>3_IGHJ4*01 & V3-4_IGLJ1*01 (Fab, V domains shown)
VH: EVQLVQSGAEVKKPGESLKISCKGSGYSFTSYWIGWVRQMPGKGLEWMGIIYPGDSDTRYSPSFQGQVTISADKSISTAYLQWSSLKASDTAMYYCARRGYSYGYDYFDYWGQGTLVTVSS
VL: QTVVTQEPSFSVSPGGTVTLTCGLSSGSVSTSYYPSWYQQTPGQAPRTLIYSTNTRSSGVPDRFSGSILGNKAALTITGAQADDESDYYCVLYMGSGISYVFGTGTKVTVL
notes: Tested as a Fab made in E. coli; also called IGHV5-51*03
